Measurements reported in the DeepSol protein solubility set.

Test: soluble on expression in E. coli; label from the status in PepcDB or PDB records

Soluble on expression in E. coli, soluble:
SAQSQRAPDRVLCHSGQQQGLPRAAGGSVPHPRCH
GMTESDRDYIQSIERGFAVLLAFDAQRPNPTLAELATEAGLSRPAVRRILLTLQKLGYVAGSGGRWSLTPRVLSIGQHYSESHALIEAAMPRLLEVAEKTQESASLGVLDGADVVYAARVPVRRIMSINVSVGTRVPAYATSMGRALLAWAPADVVERVVAESTFQKLGPETIGTAAELERELAKVREQGFALTSEELEKGLISLAAPVHDAGGTVVGVVACSTSSARNTPAQFREQAVPCVLAAAAALSADMGFAG
MSLGSDIPTLRAALARSDAWLVACFCAAWCDTCQQYRPKLLELARARPGHTFAWIDIEDHPDLLGEEDVENFPTLLVQAHGKVLFYGPMLPHIGHLERLLDSLDPQGREGHHHHHH
VERMYDVTPPGVVMGLAWTAMGGSTLFVETSLRRPQDKDAKGDKDGSLEVTGQLGEVMKESARIAYTFARAFLMQHAPANDYLVTSHIHLHVPEGATPKDGPSAGCTIVTALLSLAMGRPVRQNLAMTGEVSLTGKILPVGGIKEKTIAAKRAGVTCIVLPAENKKDFYDLAAFITEGLEVHFVEHYREIFDIAFPDEQAEALAVER
MGYPVILHLRGRRAVVVGGGKVAARKIHGLLEAGAEIVMIAPEAEPELQALAAGGMIVWKKKRFDPDDLAEAFLVIAATNDRKVNEAVTQAASSGQLVNVVDDPERCDFHVPAVIRRGPLTIAVSTGGASPAVARRIRRELEEKYGEEYRPYLEFLQRARGIVLREVEDAEGRKRLFQALAADSFRQSGRWEEEFTRLLAKEKERNKEGERGR
MAHHHHHHMSSLDSVREDILDVFHIFDEDGSGSITMQELKRAIYTITGIRISRIDLSILVRTCKEEMLKESARKSEAGANVAGKAGEKLWTPEPESEVNTVDPQLFAAVVLKTLNRRTQEQELLFTFRLLEDKDYPGFITKDSLKRASADIDEHLTDQEVNEMFDKLVTGVSAAAIDFVTFSSLMETLRKSI
MVMKQTKQTNILAGAAVIKVLEAWGVDHLYGIPGGSINSIMDALSAERDRIHYIQVRHEEVGAMAAAADAKLTGKIGVCFGSAGPGGTHLMNGLYDAREDHVPVLALIGQFGTTGMNMDTFQEMNENPIYADVADYNVTAVNAATLPHVIDEAIRRAYAHQGVAVVQIPVDLPWQQIPAEDWYASANSYQTPLLPEPDVQAVTRLTQTLLAAERPLIYYGIGARKAGKELEQLSKTLKIPLMSTYPAKGIVADRYPAYLGSANRAAQKPANEALAQADVVLFVGNNYPFAEVSKAFKNTRYFLQIDIDPAKLGKRHKTDIAVLADAQKTLAAILAQVSERESTPWWQANLANVKNWRAYLASLEDKQEGPLQAYQVLRAVNKIAEPDAIYSIDVGDINLNANRHLKLTPSNRHITSNLFATMGVGIPGAIAAKLNYPERQVFNLAGDGGASMTMQDLATQVQYHLPVINVVFTNCQYGFIKDEQEDTNQNDFIGVEFNDIDFSKIADGVHMQAFRVNKIEQLPDVFEQAKAIAQHEPVLIDAVITGDRPLPAEKLRLDSAMSSAADIEAFKQRYEAQDLQPLSTYLKQFGLDDLQHQIGQGGF
SLKEFELKGINHLALVCRDFQETIDFYTITLGLKLIKNIDLPSGGKHFFIDIGNNNTLAFFWSTKAPESVPGISSVRPEAFLTGDIITAHGSMNHVAFHVPLEKLEEYKEKLVSKGVQTTPVLHHTDVPMSSFYFFDPNGILLEFAANLQSLDTLPAELKEKEAIFLKEG
MESIEQQLTELRTTLRHHEYLYHVMDAPEIPDAEYDRLMRELRELETKHPELITPDSPTQRVGAAPLAAFSQIRHEVPMLSLDNVFDEESFLAFNKRVQDRLKNNEKVTWCCELKLDGLAVSILYENGVLVSAATRGDGTTGEDITSNVRTIRAIPLKLHGENIPARLEVRGEVFLPQAGFEKINEDARRTGGKVFANPRNAAAGSLRQLDPRITAKRPLTFFCYGVGVLEGGELPDTHLGRLLQFKKWGLPVSDRVTLCESAEEVLAFYHKVEEDRPTLGFDIDGVVIKVNSLAQQEQLGFVARAPRWAVAFKFPAQEQMTFVRDVEFQVGRTGAITPVARLEPVHVAGVLVSNATLHNADEIERLGLRIGDKVVIRRAGDVIPQVVNVVLSERPEDTREVVFPTHCPVCGSDVERVEGEAVARCTGGLICGAQRKESLKHFVSRRAMDVDGMGDKIIDQLVEKEYVHTPADLFKLTAGKLTGLERMGPKSAQNVVNALEKAKETTFARFLYALGIREVGEATAAGLAAYFGTLEALEAASIEELQKVPDVGIVVASHVHNFFAEESNRNVISELLAEGVHWPAPIVINAEEIDSPFAGKTVVLTGSLSQMSRDDAKARLVELGAKVAGSVSKKTDLVIAGEAAGSKLAKAQELGIEVIDEAEMLRLLGS

Soluble on expression in E. coli, not soluble:
MKLSKIKLPYFMNELTLTELDMGVAVPKILQAFKPYVDHQGLWIDLEMSYNGSFLMTLETKMNLTKLGKEPLVEALKVGEIGKEGCRPRAFCLADSDEESSSAGSSEEDDAPEPSGGDKQLLPGAEGYVGGHRTSKIMRFVDKITKSKYFQKATETEFIKKKIEEVSNTPLLLTVEVQECRGTLAVNIPPPPTDRVWYGFRKPPHVELKARPKLGEREVTLVHVTDWIEKKLEQEFQKVFVMPNMDDVYITIMHSAMDPRSTSCLLKDPPVEAADQP
MNNGTVKWFNAEKGFGFIEQENGGDVFVHFSGIASDGYKTLEEGQKVTFEITEGQRGDQAVNVQTV
MGSDKIHHHHHHYKDLSQLKSEVDRLCRLCPWDWTFFNGNCYFFSKSQRDWHDSMTACKEMGAQLVIIKSHEEQSFLQQTSKKNSYTWMGLSDLNKEGEWYWLDGSPLSDSFEKYWKKGQPNNVGGQDCVEFRDNGWNDAKCEQRKFWICKKIATTCLS
MGSDKIHHHHHHKIKQTAGRDQLGTFAPKFAELNDDILFGEVWSRTEQLGLRDRSLVTITSLISQGITDSSLTFHLQSAKNNGITRTEIAEIITHIGFYAGWPKAWAAFRLAKEVWNEDISCKDKDEKTTFQREMIFPIGEPNTAYAQYFTGNSYLAPISREQASISNVTFEPRCRNNWHIHHATQGGGQMLIGIAGRGWYQEEGKAAVEILPGTVIHIPANVKHWHGAAANSWFAHLAFELSGENTSNEWLEPVTDEEYDKIQMLP
RVASNLDNKARVTELFKSAYSILTEVEKMAVEGKMPEEEAKALATRLLRNNIYKDNEYVYVADENMMFIAAPLDPQLHGTSFHDFKDGSGNSVGQ
MGHHHHHHSHMKPSGEDQAALAAGPWEECFQAAVQLALRAGQIIRKALTEEKRVSTKTSAADLVTETDHLVEDLIISELRERFPSHRFIAEEAAASGAKCVLTHSPTWIIDPIDGTCNFVHRFPTVAVSIGFAVRQELEFGVIYHCTEERLYTGRRGRGAFCNGQRLRVSGETDLSKALVLTEIGPKRDPATLKLFLSNMERLLHAKAHGVRVIGSSTLALCHLASGAADAYYQFGLHCWDLAAATVIIREAGGIVIDTSGGPLDLMACRVVAASTREMAMLIAQALQTINYGRDDEK
FDGIFHTVKLLEPIQQSNADPAASFALFQQKFPNLKRVANSTLNTFDVYNLLSGWKSSLTAYLNQVLALQQRIKAADQIFPNQKETLPKDENPNIFEVLGAYGGKGFFPTLGSNGLHLPPQLFQFFRDFQLSSFTIKDFEVALVSEPDIVQHDKVRYAFQVQ
MGSDKIHHHHHHMSISVKSNRALFDLDLLRAIVVVADCGSFTTAAARLHSTQSTISQKVRRLEDMVGHRLLVRGNRDVLPTDAGQTLLGYARHMLALNDQMLEALAGAMVGTTVRLGVPEDFVGGRTTNALSAFSRLHPQVKLEVTSGLCRDLSQAYDNGELDLVLLKQRRNSREGVACWPERLQWIDSARTPAFELDPIPLVTFPPRGLYREDMINAIEGMGRRWRISFTSSSLSGIQAAVADGMGISLLPPRAATGEHRVLGAGQGLPEVDSYEIVIVHRPTADVMVKALAEVMTQLLAGGGI
MGSDKIHHHHHHMTVRQDIHSSGIPVLCLSCAARLRGVCAALDPNHLVGLAKTSSRHKLEPGVELIADAEAVDSYSNLLSGVVKLTKCLSDGRQQIVGLRFAPDFLGRPFKVKSTINVEAATSVSLCSFPKAAVERIMKESPGLEHRLLKQTLDELDEALEWMVTLGRKTAPEKVASFLLMIARNMDSSIDPAAGSACFDLPLTRADISDFLGLTNETVSRQLTRLRADGVIRIENKRHVTVDSMSRLEQRCGGRGARQPAFE
MMGFSFYFFNEERYKMDKKDYKINKQNATAAKQQPLSPAAQRALNEAEERRKHETNEEKPLENGGRGGKDPSRYGDWEIKGRAIDFLEHHHHHH
ATQFTASILSLYNSEQMLQKTDPMSVISSAMVAATLDLPIDKNLGYAWIVPYGGKAQFQLGYKGYIQLALRTGQYKSINCIPIHEGELQKWNPLTEEIEIDFEKRESDAVIGYAAYFELINGFRKTVYWTKAQVEKHKKKFSKSDFGWKNDWDAMALKTVLKAVLSKWGILSVEMQKAVIEEDETRERIDITNEADSSEIIDSE
MELAVHDATEDGAGYATAASSWVVVEPEFVVDVTDIRSFVQCPRLYYLNKLSGLPLKYPVTKGTIVHEVFGDLLRGRDLEASVAQRVDEAGLELGLLGRSRAEVEADVRDNASAIEGWLQQGRLTDEDEWRSEYTLVSERFGIKGRCDAIRRGMPVELKTGKNTNREPRFHDKVQAACYALMLDEHGVPADTGTLLYTKNAAVDRSEASGDLSPAKEFSIGRGFLEFVVRERNHLAALEASDGPPTGYEADAKCDYCFEQDTCMVVSGRLDQESKAGRIGDPVPAEERAYFDELYDAIEAERGAIHDEYRKLWEQSPDERAADDRAVVGLSPAEQTELPDGRWRLTATRPGSAASKIREGDRVLASDGDPVAGRAEMARVERLDADRVEVTTDEPVSLCRLDVYPSELSVDRMLTALHDAVLKSDQRRTDLLFDRASPRFEGGDHDLIPNNDAQNAAVNRALNAEDFALVHGPPGTGKTYTIATLVQAFVARGDRVLVSAFTNRAVDNALDALRQQGHEDIVRVGTETGVRADMQDLRLDRSGDPGERAAALRSAPVVAATTATCGSRILRELEFDVVLVDEASQLTEPDTLAAINRGARFVLVGDHEQLPPVVRSGGRLSKSLFERLHETYPEASVMLDQQYRMSQRIQAFSSREFYDGQLRPASSEVAGQRLTDVGVDPGGAVHGGVTFYDVPGTDDAHVDPAEADRVADVVTAYVDAGLDPGEIGVIAPFRAQVAEIGRRTPAGVAVDTVDRFQGSSKEVIVVSFVARGTLEGPIFEDHRRVNVALSRAKKSLVLVGDERALRSEPLYDRMIDWADMELEHHHHHH
MSDDPNTTQERAMEGPSENQAARQLEGNQEEAQRQPKEEQADREEAKGEEEAPQVAAALPIPDSPFLTELARLLRGSLRPYLNTEPDEVIEAARQDHQLDQEVANENLLQYICRTLVESNDMGKLAEIRELFARTPEDPAFNTPAGIDDSAMNQFYELIRDCRVVPEDDQTFVPRQALATRIHLIIDSFQARRESEFLRQWCQQNIVCLLYGNPVPEMKDFAYRILIEMLTSSSTWTAELESFANELSRKRGTFINDYWATIRDQNEAGDLDPKRTLFADFRDQHSVFGNVQFDIFRERLAQLEKLWHSQMRMFDVPDKVLCVTGIVTDTMTEMLMGVKDGKPNITPFLKKARIFYRLSDGAETSEAPAEASARASEAPEAPALPPKRSRGIKRKLSEYAEELFESKKPKSDELPTAEQWMYFLQHCLQGPEQDEQRGGNQ
MDIMLVLWNGTPPMTRPEIEKVINTKKKLASTTILSLLTRLESKNFVEVTKQGKLNLYTPLVSQSDYQAHESQSVLEKLYGNSLKKFVTSLYQGKKISSEEIHELSDFLKELEDGEE
MAHHHHHHMRSNRNGSHSFFFLSVYSWFIFSPFEVFDDEYFLVDEKEKYVFLFVFVFMEEKRICVVVFPVPKVHAAAEIVIVDAVLFPHAADTDELKLCHF
